Here are results for 6 molecules from patent CN108948193A (SHANGHAI JIANXIN BIOPHARMACEUTICALS LLC, dated 2018).

Substitutions are numbered along the chain they refer to. “And” between values parts separate entries of the source, which are not always exact repeats. Equal values may be shown once.

For experiment [1], the target named is TIM3-hFc (human TIM-3 Fc fusion, 货号 TM3-H5258, 北京百普赛斯生物科技有限公司) (human) (UniProt Q8TDQ0). Kind of experiment: ELISA, hybridoma supernatant on TIM3-hFc captured by anti-hFc.
Experiment [2] deals with T1, TIM3-hFc (human TIM-3 Fc fusion, 货号 TM3-H5258, 北京百普赛斯生物科技有限公司) (human, UniProt Q8TDQ0 22-200).
T1 construct: also called 人TIM-3; 人TIM-3抗原; not shown: human Fc (hFc) of the bought fusion
Kind of experiment: ELISA on TIM3-hFc captured by anti-hFc.

Experiment [3] concerns the target human TIM-3 on human blood cells (PBMC / NK cells / activated T cells) (human, UniProt Q8TDQ0 22-301). Nature of the experiment: cell-based or functional assay.
Experiment [4] addresses T2, 人Tim-3 (antigen used as analyte in Biacore) (human, UniProt Q8TDQ0 22-200).
T2 construct: Soluble antigen flowed at 0-30 nM over antibody captured by Protein A; also called 抗原TIM-3
Nature of the experiment: SPR, Biacore T200, antibody captured by Protein A on CM5, TIM-3 as analyte, 1:1 Langmuir.

B1: mab5 (mouse hybridoma clone 6F3, murine anti-human TIM-3 monoclonal antibody) (antibody, V domains shown)
VH: EVKLVESEGGLVQPGGSMKLSCTASGFTFSDYYMAWVRQVPEKGLEWVANINYDGSNTYYLDSLKSRFIISRDNVKNILYLQMSSLKSEDTATYYCARGLYYYGGNYFAYWGQGTLVTVSA
VL: DILMTQSPSSMSVSLGDTVTITCHASQGISSNIGWLQQKPGKSFKGLIYQGSNLEDGVPSRFSGSGSGADYSLTISSLEYEDFADYYCVQFAQFPPTFGAGTKLELK
In the case of B1, the ELISA 数值(OD450) in experiment [1] came to 1.73 OD450.

B2: mab5-c (chimeric anti-human TIM-3 antibody, human IgG4-κ) (antibody, V domains shown)
VH: B1 VH
VL: DILMTQSPSSMSVSLGDTVTITCHASQGISSNIGWLQQKPGKSFKGLIYQGSNLEDGVPSRFSGSGSGADYSLTISSLEYEDFADYYCVQFAQFPPTFGAGTKLELKR
notes: Mouse mab5 variable regions on human IgG4 / kappa constant regions; expressed in HEK293E; also called 嵌合抗体mab5-c
On to B2, for which the EC50 in experiment [2] is 0.107 nM and 0.06 nM. Further, the “killing activity relative to the reference antibody ABTIM3 (fold)” value in experiment [3] was 2.8 倍 (fold). In experiment [4], this molecule gave a Kd of 1.76 nM, a koff of 0.00244 s⁻¹ and an association rate constant (kon) of 1.39e+06 M⁻¹ s⁻¹.

B3: 对照抗体 ABTIM3 (reference anti-TIM-3 antibody, sequence from WO2015117002A1) (antibody, V domains shown)
VH: QVQLQQPGAELVKPGASVKMSCKASGYTFTSYNMHWIKQTPGQGLEWIGDIYPGNGDTSYNQKFKGKATLTADKSSSTVYMQLSSLTSEDSAVYYCARVGGAFPMDYWGQGTSVTVSS
VL: DIVLTQSPASLAVSLGQRATISCRASESVEYYGTSLMQWYQQKPGQPPKLLIYAASNVESGVPARFSGSGSGTDFSLNIHPVEEDDIAIYFCQQSRKDPSTFGGGTKLEIK
As for B3, in experiment [2], the EC50 was 0.245 nM and 0.13 nM.

B4: 人源化ab8抗体 (humanized anti-TIM-3 antibody ab8) (antibody, IgG4, V domains shown)
VH: EVQLVESGGGLVKPGGSLRLSCAASGFTFSDYYMAWVRQAPGKGLEWVANINYDGSNTYYLDSLKSRFTISRDNAKNSLYLQMNSLRAEDTAVYYCARGLYYYGGNYFAYWGQGTLVTVSS
VL: DIQMTQSPSSLSASVGDRVTITCHASQGISSNIGWLQQKPGKAFKGLIYQGSNLEDGVPSRFSGSGSGTDYTLTISSLQPEDFATYYCVQFAQFPPTFGQGTKLEIKR
notes: Humanized mab5; human kappa / IgG4
For B4, the EC50 in experiment [2] stood at 0.131 nM.

B5: 人源化ab6抗体 (humanized anti-TIM-3 antibody ab6) (antibody, human IgG4 S228P, kappa, V domains shown)
VH: B4 VH
VL: B4 VL with T69A
notes: as for B4
In the case of B5, in experiment [2], a half-maximal effect (EC50) was put at 0.159 nM. In addition, in experiment [3], the “killing of tumour cells by PBMC/NK cells relative to the reference antibody (fold)” value is ≥ 2 倍 (fold).

B6: 人源化ab7抗体 (humanized anti-TIM-3 antibody ab7) (antibody, human IgG4 S228P, kappa, V domains shown)
VH: B4 VH
VL: B4 VL with Y71F
notes: as for B4
B6 gave an EC50 in experiment [2] of 0.154 nM.
